From patent US20240261332A1

Target: CD19 (human) (UniProt P15391)
Assay: cell-based or functional assay

Sequence of UniProt P15391 (P15391 20-556): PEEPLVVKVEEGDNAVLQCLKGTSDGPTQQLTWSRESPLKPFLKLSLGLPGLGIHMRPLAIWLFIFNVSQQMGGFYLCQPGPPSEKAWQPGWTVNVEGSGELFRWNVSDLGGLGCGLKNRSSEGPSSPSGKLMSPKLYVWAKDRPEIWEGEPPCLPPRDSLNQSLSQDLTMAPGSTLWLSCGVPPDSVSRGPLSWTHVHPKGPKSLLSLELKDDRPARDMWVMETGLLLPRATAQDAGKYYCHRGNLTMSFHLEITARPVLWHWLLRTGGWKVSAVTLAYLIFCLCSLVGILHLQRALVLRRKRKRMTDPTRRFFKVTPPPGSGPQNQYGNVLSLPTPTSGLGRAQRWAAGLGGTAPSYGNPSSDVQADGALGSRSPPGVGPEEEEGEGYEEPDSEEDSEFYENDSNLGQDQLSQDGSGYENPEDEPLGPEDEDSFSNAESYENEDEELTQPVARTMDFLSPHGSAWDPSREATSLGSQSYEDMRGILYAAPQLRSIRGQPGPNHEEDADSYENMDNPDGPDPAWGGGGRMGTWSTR

- portion of CAR19-NK cells that acquired CD19 on their surface (trogocytosis) within minutes of co-culture with Raji targets, flow cytometry: 75%
Substance: anti-CD19 activating CAR (19scFv.CD28.zeta) (from UniProt P10747 153-220; P20963 52-164)
